For orientation: EC50 means the concentration at which the effect is half-maximal. Lower therefore signals greater potency. Usually Kd stands for a measure of binding affinity in units of concentration. Usually koff stands for a measure of how fast the partners let go of each other. A higher koff goes with a short-lived complex. The term kon denotes the second-order rate constant of association.

Data on five molecules can be found in patent US20240400715A1 (VIBRANT PHARMA, published 2024).

Assay [1] deals with T1, human CD3 on Jurkat cells (human, UniProt P07766 23-207; P04234 22-171; P09693 23-182).
T1 construct: whole, on cells; CD3 complex as on Jurkat (Clone E6-1) cells; also called CD3 expressing cells (Jurkat)
Nature of the assay: FACS, Jurkat cells.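 Further: flow cytometric binding of bispecific antibodies to Jurkat T cells, threefold serial dilutions incubated half an hour in the cold, EC50 taken from the fitted binding curve.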 A general note: In flow cytometry, cells or beads pass a laser one at a time.

The target in assay [2] is T2, human CD3ε/δ (ACRO systems, CDD-H52W1) (human, UniProt P07766 23-126; P04234 22-105).
T2 construct: Bought protein; also called human CD3ϵ/CD3δ; human CD3 epsilon/delta antigen
Nature of the assay: BLI, antibody captured, antigen in solution.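 Further: bispecific antibodies captured on AHIC biosensors to a 1.5 nm loading signal, in PBST with 0.02% detergent.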 On the technique in general: Biolayer interferometry detects binding as a change in optical thickness at a sensor tip.
Protocol: The bispecific antibodies were diluted to 5 ag/ml, and 1.5 nm protein was coupled to the surface of the AHIC sensor chip through 0.02% PBST.

Values joined by “and” are separate entries in the source; they are usually repeats but may differ in a detail not shown here. Identical values can stand only once.

B1: CEA-Knob+Hole-Fab (110) (bispecific antibody, human IgG4 S228P, kappa, F234A L235A)
chain: EVQLVESGGGFVQAGESLTLSCTSSTLTFTPYRMAWYRQAPGKQRDLVADISSGDGRTTNYADFAKGRFTISRDNIKNTVFLRMTNLKPEDTAVYYCNTFVSFVGIARSWGQGTQVTVSSESKYGPPCPPCPAPEAAGGPSVFLFPPKPKDTLMISRTPEVTCVVVDVSQEDPEVQFNWYVDGVEVHNAKTKPREEQFNSTYRVVSVLTVLHQDWLNGKEYKCKVSNKGLPSSIEKTISKAKGQPREPQVYTLPPCQEEMTKNQVSLWCLVKGFYPSDIAVEWESNGQPENNYKTTPPVLDSDGSFFLYSRLTVDKSRWQEGNVFSCSVMHEALHNHYTQKSLSLSL
heavy: ESKYGPPCPPCPAPEAAGGPSVFLFPPKPKDTLMISRTPEVTCVVVDVSQEDPEVQFNWYVDGVEVHNAKTKPREEQFNSTYRVVSVLTVLHQDWLNGKEYKCKVSNKGLPSSIEKTISKAKGQPREPQVCTLPPSQEEMTKNQVSLSCAVKGFYPSDIAVEWESNGQPENNYKTTPPVLDSDGSFFLVSRLTVDKSRWQEGNVFSCSVMHEALHNRFTQKSLSLSLGGGGSGGGGSEVKLLESGGGLVQPKGSLKLSCAASGFTFNTYAMNWVRQAPGKGLEWVARIRSKYNNYATYYADSVKDRFTISRDDSQSILYLQMNNLKTEDTAMYYCVRHGNFGNSYVSWFAYWGQGTLVTVSSASTKGPSVFPLAPCSRSTSESTAALGCLVKDYFPEPVTVSWNSGALTSGVHTFPAVLQSSGLYSLSSVVTVPSSSLGTKTYTCNVDHKPSNTKVDKRV
light: QAVVTQESALTTSPGETVTLTCRSSTGAVTTSNYANWVQEKPDHLFTGLIGGTNKRAPGVPARFSGSLIGDKAALTITGAQTEDEAIYFCALWYSNLWVFGGGTKVEIKRTVAAPSVFIFPPSDEQLKSGTASVVCLLNNFYPREAKVQWKVDNALQSGNSQESVTEQDSKDSTYSLSSTLTLSKADYEKHKVYACEVTHQGLSSPVTKSFNRGEC
notes: Anti-CD3 TA1 Fab + anti-CEA VHH C17 on human IgG4 knob-into-hole Fc; also called CEA-CD3 bispecific antibody 110
As for B1, in assay [1], the EC50 is 8.88 µg/mL and 68.3 nM. In addition, in assay [2], binding was characterised by a dissociation constant (Kd) of 1.98 nM, the koff is 0.000565 s⁻¹ and the kon came out at 285000 M⁻¹ s⁻¹.

B2: Knob+CEA-Hole-Fab (111) (bispecific antibody, human IgG4 S228P, kappa, F234A L235A)
chain: ESKYGPPCPPCPAPEAAGGPSVFLFPPKPKDTLMISRTPEVTCVVVDVSQEDPEVQFNWYVDGVEVHNAKTKPREEQFNSTYRVVSVLTVLHQDWLNGKEYKCKVSNKGLPSSIEKTISKAKGQPREPQVYTLPPCQEEMTKNQVSLWCLVKGFYPSDIAVEWESNGQPENNYKTTPPVLDSDGSFFLYSRLTVDKSRWQEGNVFSCSVMHEALHNHYTQKSLSLSL
heavy: EVQLVESGGGFVQAGESLTLSCTSSTLTFTPYRMAWYRQAPGKQRDLVADISSGDGRTTNYADFAKGRFTISRDNIKNTVFLRMTNLKPEDTAVYYCNTFVSFVGIARSWGQGTQVTVSSESKYGPPCPPCPAPEAAGGPSVFLFPPKPKDTLMISRTPEVTCVVVDVSQEDPEVQFNWYVDGVEVHNAKTKPREEQFNSTYRVVSVLTVLHQDWLNGKEYKCKVSNKGLPSSIEKTISKAKGQPREPQVCTLPPSQEEMTKNQVSLSCAVKGFYPSDIAVEWESNGQPENNYKTTPPVLDSDGSFFLVSRLTVDKSRWQEGNVFSCSVMHEALHNRFTQKSLSLSLGGGGSGGGGSEVKLLESGGGLVQPKGSLKLSCAASGFTFNTYAMNWVRQAPGKGLEWVARIRSKYNNYATYYADSVKDRFTISRDDSQSILYLQMNNLKTEDTAMYYCVRHGNFGNSYVSWFAYWGQGTLVTVSSASTKGPSVFPLAPCSRSTSESTAALGCLVKDYFPEPVTVSWNSGALTSGVHTFPAVLQSSGLYSLSSVVTVPSSSLGTKTYTCNVDHKPSNTKVDKRV
light: QAVVTQESALTTSPGETVTLTCRSSTGAVTTSNYANWVQEKPDHLFTGLIGGTNKRAPGVPARFSGSLIGDKAALTITGAQTEDEAIYFCALWYSNLWVFGGGTKVEIKRTVAAPSVFIFPPSDEQLKSGTASVVCLLNNFYPREAKVQWKVDNALQSGNSQESVTEQDSKDSTYSLSSTLTLSKADYEKHKVYACEVTHQGLSSPVTKSFNRGEC
notes: Anti-CD3 TA1 Fab + anti-CEA VHH C17 on human IgG4 knob-into-hole Fc
Consider B2, for which, in assay [1], the EC50 is 7.6 µg/mL and 58.5 nM. In assay [2], this molecule displayed a Kd of 2.08 nM, a koff of 0.000694 s⁻¹ and a kon of 333000 M⁻¹ s⁻¹.

B3: Knob-CEA+Hole-Fab (112) (bispecific antibody, human IgG4 S228P, kappa, F234A L235A)
chain: ESKYGPPCPPCPAPEAAGGPSVFLFPPKPKDTLMISRTPEVTCVVVDVSQEDPEVQFNWYVDGVEVHNAKTKPREEQFNSTYRVVSVLTVLHQDWLNGKEYKCKVSNKGLPSSIEKTISKAKGQPREPQVYTLPPCQEEMTKNQVSLWCLVKGFYPSDIAVEWESNGQPENNYKTTPPVLDSDGSFFLYSRLTVDKSRWQEGNVFSCSVMHEALHNHYTQKSLSLSLGGGGSGGGGSEVQLVESGGGFVQAGESLTLSCTSSTLTFTPYRMAWYRQAPGKQRDLVADISSGDGRTTNYADFAKGRFTISRDNIKNTVFLRMTNLKPEDTAVYYCNTFVSFVGIARSWGQGTQVTVSS
heavy: ESKYGPPCPPCPAPEAAGGPSVFLFPPKPKDTLMISRTPEVTCVVVDVSQEDPEVQFNWYVDGVEVHNAKTKPREEQFNSTYRVVSVLTVLHQDWLNGKEYKCKVSNKGLPSSIEKTISKAKGQPREPQVCTLPPSQEEMTKNQVSLSCAVKGFYPSDIAVEWESNGQPENNYKTTPPVLDSDGSFFLVSRLTVDKSRWQEGNVFSCSVMHEALHNRFTQKSLSLSLGGGGSGGGGSEVKLLESGGGLVQPKGSLKLSCAASGFTFNTYAMNWVRQAPGKGLEWVARIRSKYNNYATYYADSVKDRFTISRDDSQSILYLQMNNLKTEDTAMYYCVRHGNFGNSYVSWFAYWGQGTLVTVSSASTKGPSVFPLAPCSRSTSESTAALGCLVKDYFPEPVTVSWNSGALTSGVHTFPAVLQSSGLYSLSSVVTVPSSSLGTKTYTCNVDHKPSNTKVDKRV
light: QAVVTQESALTTSPGETVTLTCRSSTGAVTTSNYANWVQEKPDHLFTGLIGGTNKRAPGVPARFSGSLIGDKAALTITGAQTEDEAIYFCALWYSNLWVFGGGTKVEIKRTVAAPSVFIFPPSDEQLKSGTASVVCLLNNFYPREAKVQWKVDNALQSGNSQESVTEQDSKDSTYSLSSTLTLSKADYEKHKVYACEVTHQGLSSPVTKSFNRGEC
notes: as for B2
As for B3, the EC50 in assay [1] is 5.32 µg/mL and 40.9 nM. In assay [2], this molecule returned a Kd of 2.44 nM, a koff of 0.000614 s⁻¹ and a kon of 252000 M⁻¹ s⁻¹.

B4: 311 (TA6), configuration of FIG. 1X (bispecific antibody, IgG4)
heavy: EVQLVQSGAEVKKPGASVKVSCKASGYTFTNYYIHWVRQAPGQGLEWIGWIYPGDGNTKYNEKFKGRATLTADTSTSTAYLELSSLRSEDTAVYYCARDSYSNYYFDYWGQGTLVTVSSASTKGPSVFPLAPCSRSTSESTAALGCLVKDYFPEPVTVSWNSGALTSGVHTFPAVLQSSGLYSLSSVVTVPSSSLGTKTYTCNVDHKPSNTKVDKRVESKYGPPCPPCPAPEAAGGPSVFLFPPKPKDTLMISRTPEVTCVVVDVSQEDPEVQFNWYVDGVEVHNAKTKPREEQFNSTYRVVSVLTVLHQDWLNGKEYKCKVSNKGLPSSIEKTISKAKGQPREPQVYTLPPCQEEMTKNQVSLWCLVKGFYPSDIAVEWESNGQPENNYKTTPPVLDSDGSFFLYSRLTVDKSRWQEGNVFSCSVMHEALHNHYTQKSLSLSLGGGGSGGGGSEVQLVESGGGFVQAGESLTLSCTSSTLTFTPYRMAWYRQAPGKQRDLVADISSGDGRTTNYADFAKGRFTISRDNIKNTVFLRMTNLKPEDTAVYYCNTFVSFVGIARSWGQGTQVTVSS
chain: ESKYGPPCPPCPAPEAAGGPSVFLFPPKPKDTLMISRTPEVTCVVVDVSQEDPEVQFNWYVDGVEVHNAKTKPREEQFNSTYRVVSVLTVLHQDWLNGKEYKCKVSNKGLPSSIEKTISKAKGQPREPQVCTLPPSQEEMTKNQVSLSCAVKGFYPSDIAVEWESNGQPENNYKTTPPVLDSDGSFFLVSRLTVDKSRWQEGNVFSCSVMHEALHNRFTQKSLSLSL
light: DIVMTQSPDSLAVSLGERATINCKSSQSLLNSRTRKNYLAWYQQKPGQPPKLLIYWASTRESGVPDRFSGSGSGTDFTLTISSLQAEDVAVYYCTQSFILRTFGQGTKVEIK
notes: chains put together from parts; IgG4, kappa; not shown: kappa light chain constant domain (CL)
As for B4, the EC50 in assay [1] is 1.04 µg/mL and 8.02 nM. In assay [2], binding was characterised by a dissociation constant (Kd) of 3.66 nM, the koff was found to be 0.00101 s⁻¹ and the kon came to 303000 M⁻¹ s⁻¹.

B5: 312 (TA7), configuration of FIG. 1X (bispecific antibody, IgG4)
heavy: EVQLVQSGAEVKKPGASVKVSCKASGFTFTSYYIHWVRQAPGQGLEWIGWIYPENDNTKYNEKFKDRVTITADTSTSTAYLELSSLRSEDTAVYYCARDGYSRYYFDYWGQGTLVTVSSASTKGPSVFPLAPCSRSTSESTAALGCLVKDYFPEPVTVSWNSGALTSGVHTFPAVLQSSGLYSLSSVVTVPSSSLGTKTYTCNVDHKPSNTKVDKRVESKYGPPCPPCPAPEAAGGPSVFLFPPKPKDTLMISRTPEVTCVVVDVSQEDPEVQFNWYVDGVEVHNAKTKPREEQFNSTYRVVSVLTVLHQDWLNGKEYKCKVSNKGLPSSIEKTISKAKGQPREPQVYTLPPCQEEMTKNQVSLWCLVKGFYPSDIAVEWESNGQPENNYKTTPPVLDSDGSFFLYSRLTVDKSRWQEGNVFSCSVMHEALHNHYTQKSLSLSLGGGGSGGGGSEVQLVESGGGFVQAGESLTLSCTSSTLTFTPYRMAWYRQAPGKQRDLVADISSGDGRTTNYADFAKGRFTISRDNIKNTVFLRMTNLKPEDTAVYYCNTFVSFVGIARSWGQGTQVTVSS
chain: ESKYGPPCPPCPAPEAAGGPSVFLFPPKPKDTLMISRTPEVTCVVVDVSQEDPEVQFNWYVDGVEVHNAKTKPREEQFNSTYRVVSVLTVLHQDWLNGKEYKCKVSNKGLPSSIEKTISKAKGQPREPQVCTLPPSQEEMTKNQVSLSCAVKGFYPSDIAVEWESNGQPENNYKTTPPVLDSDGSFFLVSRLTVDKSRWQEGNVFSCSVMHEALHNRFTQKSLSLSL
light: DIVMTQSPDSLAVSLGERATINCKSSQSLLNSRTRKNYLAWYQQKPGQSPKLLIYWTSTRKSGVPDRFSGSGSGTDFTLTISSLQAEDVAVYYCKQSFILRTFGQGTKVEIK
notes: as for B4
Regarding B5, the EC50 in assay [1] was 0.146 µg/mL and 1.12 nM. Besides, in assay [2], binding was characterised by a dissociation constant (Kd) of 3.24 nM, the koff is 0.000565 s⁻¹ and the kon was found to be 157000 M⁻¹ s⁻¹.
